What was measured:
TK-10 cells = test: IL-8 and IL-6 production in TK-10 cells (ELISA of conditioned media); assay type: cell-based, human; details: TK-10 cells, 24 hours, IL-8 ELISA
Protocol: Fractions were tested by incubation with TK-10 cells for 24 hours (0.033 microliters fraction/ml of cell culture media). Conditioned media was then collected and IL-8 and IL-6 concentration measurements were performed on each fraction by ELISA. […] Gels, blots, amino acid sequence and activity assays were run on this fraction (FIG. 3). Alternatively, fraction 31 and the remaining volume of fraction 32, from the HiLoad S Sepharose run were pooled and dialyzed against Buffer A for eight hours using a 10 kD cutoff membrane and passed through a 0.2 micron filter. […] Fractions 26-43 were assayed and protein concentrations were determined by amino acid analysis. Pure IL-17A/F was identified in fractions 31-33 as a single protein with apparent molecular mass of 30-35 kD. The concentrations of fractions 31, 32 and 33 were 0.258, 0.359 and 0.291 mg/ml respectively.
IL-17A/F, IL-17 and IL-17F were incubated with TK-10 cells at the indicated concentrations for 24 hours.
TK-10 conditioned media was collected and analyzed by IL-8 ELISA and IL-6 ELISA.

IL-17R = molecular target: T1, IL-17R (Homo sapiens, UniProt Q96F46); test: SPR competition for receptor binding to immobilized IL-17; details: IL-17R 500 nM; IL-17F at 2 ┘M
T1 construct: the extracellular domains (ECDs) of either of the two receptors IL-17R (designated PRO1) and IL-17RH1 (PRO5801)
Protocol: The kinetics and affinity of IL-17, IL-17E (PRO10272), or IL-17F (PRO20110) binding to IL-17R or IL-17RH1 (PRO5801) were determined by SPR measurements on a Pharmacia BIAcore 1000 instrument (Phamacia Biosensor, Piscataway N.J.). IL-17 ligand or receptor was immobilized onto a flow cell of a CM5 sensor chip via random coupling to amino groups, N-hydroxysuccinimide chemistry, by using a protocol developed by the manufacturer. An immobilization level of about 500 resonance units (RU) was obtained for IL-17R, IL-17RH1, and IL-17F, whereas IL-17 and IL-17E immobilization levels were 1200 and 1500 RU, respectively. A strong signal was obtained for IL-17R binding to immobilized IL-17. […] After blocking unreacted sites with ethanolamine, binding measurements were performed using a flow rate of 25 ┘L/min. Sensorgrams-were obtained for a series of six, two-fold serially diluted protein solutions. The highest concentration used was 1000 or 500 nM protein and the solutions were prepared in the running buffer, PBS containing 0.05% Tween-20. […] Sensorgrams were evaluated according to a 1:1 binding model by non-linear regression analysis using software supplied by the manufacturer. […] The amount of bound receptor was determined from the resonance signal obtained after completion of the association phase. […]

[1] = molecular target: T2, Cos cells transfected with IL-17R (Homo sapiens, UniProt Q96F46); test: Binding to Cos cells transfected with IL-17R; assay type: cell-based; details: data not shown
T2 construct: expressed in transfected cells; host or cells: Cos cells

[2] = molecular target: T3, human IL-17 receptor (IL-17R, PRO1) as tested in the receptor/ligand screen (human, UniProt Q96F46 33-320, limits assumed); test: receptor/ligand screen, FIG. 14
T3 construct: also called IL-7R (as misprinted)
Source text: A PRO polypeptide of the present invention suspected of being a ligand for a receptor is expressed as a fusion protein containing the Fc domain of human IgG (an immunoadhesin). Receptor-ligand binding is detected by allowing interaction of the immunoadhesin polypeptide with cells (e.g. Cos cells) expressing candidate PRO polypeptide receptors and visualization of bound immunoadhesin with fluorescent reagents directed toward the Fc fusion domain and examination by microscope. Cells expressing candidate receptors are produced by transient transfection, in parallel, of defined subsets of a library of cDNA expression vectors encoding PRO polypeptides that may function as receptor molecules. Cells are then incubated for 1 hour in the presence of the PRO polypeptide immunoadhesin being tested for possible receptor binding. The cells are then washed and fixed with paraformaldehyde. The cells are then incubated with fluorescent conjugated antibody directed against the Fc portion of the PRO polypeptide immunoadhesin (e.g. FITC conjugated goat anti-human-Fc antibody). The cells are then washed again and examined by microscope. A positive interaction is judged by the presence of fluorescent labeling of cells transfected with cDNA encoding a particular PRO polypeptide receptor or pool of receptors and an absence of similar fluorescent labeling of similarly prepared cells that have been transfected with other cDNA or pools of cDNA. If a defined pool of cDNA expression vectors is judged to be positive for interaction with a PRO polypeptide immunoadhesin, the individual cDNA species that comprise the pool are tested individually (the pool is “broken down”) to determine the specific cDNA that encodes a receptor able to interact with the PRO polypeptide immunoadhesin.
In another embodiment of this assay, an epitope-tagged potential ligand PRO polypeptide (e.g., 8 histidine “His” tag) is allowed to interact with a panel of potential receptor PRO polypeptide molecules that have been expressed as fusions with the Fc domain of human IgG (immunoadhesins). Following a 1 hour co-incubation with the epitope tagged PRO polypeptide, the candidate receptors are each immunoprecipitated with protein A beads and the beads are washed. Potential ligand interaction is determined by Western blot analysis of the immunoprecipitated complexes with antibody directed towards the epitope tag.

Molecule | IL-8 production (TK-10 cells) | competition for binding of IL-17R to immobilized IL-17 (IL-17R) | binding to Cos cells transfected with IL-17R [1] | binding result [2]
IL-17F: human IL-17F ligand, SEQ ID NO:4 (protein, listed as Homo sapiens) MTVKTLHGPAMVKYLLLSILGLAFLSEAAARKIPKVGHTFFQKPESCPPVPGGSMKLDIGIINENQRVSMSRNIESRSTSPWNYTVTWDPNRYPSEVVQAQCRNLGCINAQGKEDISMNSVPIQQETLVVRRKHQGCSVSFQLEKVLVTVGCTCVTPVIHHVQ | production of IL-8 | no competition | enhanced binding | 
PRO21175 (IL-17D ligand) (ligand, UniProt Q8TAD2 16-202, looked up) AGAPRAGRRPARPRGCADRPEELLEQLYGRLAAGVLSAFHHTLQLGPREQARNASCPAGGRPADRRFRPPTNLRSVSPWAYRISYDPARYPRYLPEAYCLCRGCLTGLFGEEDVRFRSAPVYMPTVVLRRTPACAGGRSVYTEAYVTIPVGCTCVPEPEKDADSINSSIDKQGAKLLLGPNDAPAGP |  |  |  | no binding
